Assay results: paper PMC8625570, “Selectivity Determinants of RHO GTPase Binding to IQGAPs” (International Journal of Molecular Sciences, 2021)
Values joined by “and” are separate entries in the source; they are usually repeats but may differ in a detail not shown here. Identical values can stand only once.

B1: IQGAP1^C794 (C-terminal half of human IQGAP1 with the GRD, RGCT and CT domains) (domain or fragment, UniProt P46940 863-1657, looked up)
chain: DPPMVVVRKFVHLLDQSDQDFQEELDLMKMREEVITLIRSNQQLENDLNLMDIKIGLLVKNKITLQDVVSHSKKLTKKNKEQLSDMMMINKQKGGLKALSKEKREKLEAYQHLFYLLQTNPTYLAKLIFQMPQNKSTKFMDSVIFTLYNYASNQREEYLLLRLFKTALQEEIKSKVDQIQEIVTGNPTVIKMVVSFNRGARGQNALRQILAPVVKEIMDDKSLNIKTDPVDIYKSWVNQMESQTGEASKLPYDVTPEQALAHEEVKTRLDSSIRNMRAVTDKFLSAIVSSVDKIPYGMRFIAKVLKDSLHEKFPDAGEDELLKIIGNLLYYRYMNPAIVAPDAFDIIDLSAGGQLTTDQRRNLGSIAKMLQHAASNKMFLGDNAHLSIINEYLSQSYQKFRRFFQTACDVPELQDKFNVDEYSDLVTLTKPVIYISIGEIINTHTLLLDHQDAIAPEHNDPIHELLDDLGEVPTIESLIGESSGNLNDPNKEALAKTEVSLTLTNKFDVPGDENAEMDARTILLNTKRLIVDVIRFQPGETLTEILETPATSEQEAEHQRAMQRRAIRDAKTPDKMKKSKSVKEDSNLTLQEKKEKIQTGLKKLTELGTVDPKNKYQELINDIARDIRNQRRYRQRRKAELVKLQQTYAALNSKATFYGEQVDYYKSYIKTCLDNLASKGKVSKKPREMKGKKSKKISLKYTAARLHEKGVLLEIEDLQVNQFKNVIFEISPTEEVGDFEVKAKFMGVQMETFMLHYQDLLQLQYEGVAVMKLFDRAKVNVNLLIFLLNKKFYGK
B2: IQGAP2^C795 (C-terminal fragment of IQGAP2) (domain or fragment, human, UniProt Q13576 780-1575, looked up)
chain: PLTVIRKFVYLLDQSDLDFQEELEVARLREEVVTKIRANQQLEKDLNLMDIKIGLLVKNRITLEDVISHSKKLNKKKGGEMEILNNTDNQGIKSLSKERRKTLETYQQLFYLLQTNPLYLAKLIFQMPQNKSTKFMDTVIFTLYNYASNQREEYLLLKLFKTALEEEIKSKVDQVQDIVTGNPTVIKMVVSFNRGARGQNTLRQLLAPVVKEIIDDKSLIINTNPVEVYKAWVNQLETQTGEASKLPYDVTTEQALTYPEVKNKLEASIENLRRVTDKVLNSIISSLDLLPYGLRYIAKVLKNSIHEKFPDATEDELLKIVGNLLYYRYMNPAIVAPDGFDIIDMTAGGQINSDQRRNLGSVAKVLQHAASNKLFEGENEHLSSMNNYLSETYQEFRKYFKEACNVPEPEEKFNMDKYTDLVTVSKPVIYISIEEIISTHSLLLEHQDAIAPEKNDLLSELLGSLGEVPTVESFLGEGAVDPNDPNKANTLSQLSKTEISLVLTSKYDIEDGEAIDSRSLMIKTKKLIIDVIRNQPGNTLTEILETPATAQQEVDHATDMVSRAMIDSRTPEEMKHSQSMIEDAQLPLEQKKRKIQRNLRTLEQTGHVSSENKYQDILNEIAKDIRNQRIYRKLRKAELAKLQQTLNALNKKAAFYEEQINYYDTYIKTCLDNLKRKNTRRSIKLDGKGEPKGAKRAKPVKYTAAKLHEKGVLLDIDDLQTNQFKNVTFDIIATEDVGIFDVRSKFLGVEMEKVQLNIQDLLQMQYEGVAVMKMFDKVKVNVNLLIYLLNKKFYGK
notes: IQGAP2, aa 780-1575; also called IQGAP2^C975
B3: CDC42 (aa 1-178) (natural protein)
chain: not shown

Legend:
RAC1 (aa 1-179) [1] = molecular target: T1, RAC1 (aa 1-179) (human, UniProt P63000 1-179); assay: cell-based or functional assay
RAC1 (aa 1-179) [2] = molecular target: T1, RAC1 (aa 1-179); assay: SEC; analytical SEC, Superdex 200 10/300, 30 mM Tris/HCl pH 7.5, 150 mM NaCl, 5 mM MgCl2; IQGAP1^C794 and IQGAP2^C795 alone or mixed with CDC42•GppNHp or RAC1•GppNHp; fractions on Coomassie-stained SDS-PAGE; MW from a calibration curve; set-up: reference not given here; details: both partners purified
CDC42 (aa 1-178) [3] = molecular target: B3; assay: as above; set-up: reference not given here; details: both partners purified
[4] = molecular target: the molecule itself; assay: as above; set-up: reference not given here
RAC1 T25K/N26D = RAC1 T25K/N26D (human, UniProt P63000 1-179, T25K | N26D); assay: stopped-flow fluorescence spectrometry; kon from 0.2 µM mGppNHp-bound RHO GTPase with 2-8 µM IQGAP1^C794; koff by displacing with 10 µM unlabeled RAC1-GppNHp from 2 µM IQGAP1^C794 with 0.2 µM GTPase; Kd calculated from the rate constants; 25 °C; details: both partners purified
RAC1 M45E/N52E = RAC1 M45E/N52E (human, UniProt P63000 1-179, M45E | N52E); assay: as above; details: both partners purified
RAC1 Q74D = RAC1 Q74D (human, UniProt P63000 1-179, Q74D); assay: as above; details: both partners purified
RAC2 (aa 1-192) [5] = molecular target: T2, RAC2 (aa 1-192) (human, UniProt P15153 1-192); assay: as above; details: both partners purified
RAC3 (aa 1-192) [6] = molecular target: T3, RAC3 (aa 1-192) (human, UniProt P60763 1-192); assay: as above; details: both partners purified
CDC42 (aa 1-178) [7] = molecular target: B3; assay: as above; details: both partners purified
RAC2 (aa 1-192) [8] = molecular target: T2, RAC2 (aa 1-192); assay: stopped-flow fluorescence spectrometry; association (kobs): 2 µM IQGAP1^C794 or IQGAP2^C795 mixed with 0.2 µM mGppNHp-bound RHO GTPase; 30 mM Tris-HCl pH 7.5, 10 mM K2HPO4/KH2PO4 pH 7.4, 2 mM MgCl2, 3 mM DTT, 25 °C; details: both partners purified
RAC3 (aa 1-192) [9] = molecular target: T3, RAC3 (aa 1-192); assay: as above; details: both partners purified
[10] = molecular target: B1; assay: as above; details: both partners purified
[11] = molecular target: B2; assay: as above; details: both partners purified

Chain of CDC42 (aa 1-178) (P60953 1-178): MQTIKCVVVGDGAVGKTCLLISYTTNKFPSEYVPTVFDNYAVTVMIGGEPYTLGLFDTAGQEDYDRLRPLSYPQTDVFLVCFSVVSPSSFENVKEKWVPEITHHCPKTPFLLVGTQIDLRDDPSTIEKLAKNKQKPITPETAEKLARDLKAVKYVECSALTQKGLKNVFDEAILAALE

Row | Binder | p50^GAP-stimulated GTP hydrolysis of tamraGTP-bound RAC1 (0.2 µM RAC1, 10 µM p50^GAP) in the presence of IQGAP1^C794 (RAC1 (aa 1-179) [1]) [fold] | stoichiometry N (RAC1 (aa 1-179) [2]) | stoichiometry N (CDC42 (aa 1-178) [3]) | stoichiometry N [4] | binding result (RAC1 T25K/N26D) | binding result (RAC1 M45E/N52E) | binding result (RAC1 Q74D) | Kd (RAC2 (aa 1-192) [5]) [nM] | fold faster kon than with RAC1 (RAC2 (aa 1-192) [5]) [fold] | fold lower Kd than with RAC1 (RAC2 (aa 1-192) [5]) [fold] | fold lower koff than with RAC1 (RAC2 (aa 1-192) [5]) [fold] | binding result (RAC3 (aa 1-192) [6]) | fold higher binding affinity than with RAC1 (CDC42 (aa 1-178) [7]) [fold] | binding result (RAC2 (aa 1-192) [8]) | binding result (RAC3 (aa 1-192) [9]) | binding result [10] | binding result [11]
1 | B1 | 25 | 1 IQGAP per GTPase (printed as 2:2) | 1 IQGAP per GTPase (printed as 2:2) | 2 | binds | binds | binds | 27 | 4 | 34 | 8 | binds | 3 |  |  |  | 
2 | B2 |  | 1 IQGAP per GTPase (printed as 2:2) | 1 IQGAP per GTPase (printed as 2:2) | 3 and 4 |  |  |  |  |  |  |  |  |  | binds | binds |  | 
3 | B3 |  |  |  | 2 |  |  |  |  |  |  |  |  |  |  |  | binds | binds
